Experimental data published in article PMC10509167, “Identification and characterization of endo-α-, exo-α-, and exo-β-D-arabinofuranosidases degrading lipoarabinomannan and arabinogalactan of mycobacteria” (Nature Communications, 2023).

What was measured:
[1] = biological target: EndoMA1 (MIAR_33230), GH183 (DUF4185) endo-D-arabinanase from Microbacterium arabinogalactanolyticum, recombinant wild type (Microbacterium arabinogalactanolyticum JCM 9171); experiment: SEC-MALS; SEC-MALS/RI of EndoMA1, KW403-4F column (Shodex), DAWN HELEOS II; self-association in solution
[2] = biological target: EndoMA1 (MIAR_33230), GH183 (DUF4185) endo-D-arabinanase from Microbacterium arabinogalactanolyticum, recombinant wild type (Microbacterium arabinogalactanolyticum JCM 9171); experiment: SEC-SAXS; SEC-SAXS of EndoMA1 at beamline BL-10C of the Photon Factory, same column and buffer as SEC-MALS/RI; profile compared with the dimeric apo crystal structure
[3] = biological target: EndoMA1 (MIAR_33230), GH183 (DUF4185) endo-D-arabinanase from Microbacterium arabinogalactanolyticum, recombinant wild type (Microbacterium arabinogalactanolyticum JCM 9171); experiment: crystal structure; EndoMA1 wild type, apo form, 1.60 Å; sitting-drop vapor diffusion, 20 °C
[4] = biological target: EndoMA1 D51N catalytic residue mutant (Microbacterium arabinogalactanolyticum JCM 9171); experiment: crystal structure; EndoMA1 D51N co-crystallised with 10 mM A9LT, 1.80 Å; microseeding, 30 °C; four chains (A-D) in the asymmetric unit
[5] = biological target: ExoMA1 (MIAR_33200), GH172 exo-α-D-arabinofuranosidase from Microbacterium arabinogalactanolyticum, recombinant (Microbacterium arabinogalactanolyticum JCM 9171); experiment: SEC; SEC of ExoMA1 in solution (Supplementary Fig. 19a)
[6] = biological target: ExoMA1 (MIAR_33200), GH172 exo-α-D-arabinofuranosidase from Microbacterium arabinogalactanolyticum, recombinant (Microbacterium arabinogalactanolyticum JCM 9171); experiment: negative-stain transmission electron microscopy; purified ExoMA1 0.1 mg/mL in 10 mM Tris-HCl (pH 7.5), 500 mM NaCl, on carbon-coated copper grids, 2% uranyl acetate, 120 kV
[7] = biological target: ExoMA1 (MIAR_33200), GH172 exo-α-D-arabinofuranosidase from Microbacterium arabinogalactanolyticum, recombinant (Microbacterium arabinogalactanolyticum JCM 9171); experiment: crystal structure; ExoMA1 apo form, 2.42 Å; dodecamer in the asymmetric unit; sitting-drop vapor diffusion, 20 °C

“EndoMA1 (MIAR_33230), GH183 (DUF4185) endo-D-arabinanase from Microbacterium arabinogalactanolyticum, recombinant wild type (enzyme)” was tested, and the stoichiometry N [1] was 2, the stoichiometry N [2] was 2 and the stoichiometry N [3] was 2.
“EndoMA1 D51N catalytic residue mutant (enzyme)” was tested, and the stoichiometry N [4] was 2.
Work on “ExoMA1 (MIAR_33200), GH172 exo-α-D-arabinofuranosidase from Microbacterium arabinogalactanolyticum, recombinant (enzyme)” yielded a stoichiometry N [5] greater than 7, a stoichiometry N [6] of 12 and a stoichiometry N [7] of 12.
